Laboratory results: paper PMC4768215, “Targeting surface-layer proteins with single-domain antibodies: a potential therapeutic approach against Clostridium difficile-associated disease” (Applied Microbiology and Biotechnology, 2015)

B1: SLP_VHH22 (VHH)
VHH: QVQLVESGGGLVQPGGSLRLSCAASGFTLDSYAIGWFRQAPGKEHEGISCISSNGGSTYYTDSVKGRFTISRDNAKNTVYLQMNSLESEDSAVYYCATVRRCSSLDMALGALATRTKGYDYWGQGTQVTVSS
notes: From an immune llama phage display library panned on QCD-32g58 SLP; source: monomeric SEC fractions for SPR; not shown: His6, C-terminal, kept
B2: SLP_VHH50 (VHH)
VHH: QVKLEESGGGLVQPGGSLRLSCAASGFTLDYYTIGWFRQAPGKEREGVACISSDDRTYYVDSVKGRFAISRDNVKNTVYLQMNNLKPEDTAVYYCASKESVFLIATMKGCAPGHDDYWGQGTQVTVSS
notes: as for B1
B3: SLP_VHH26 (VHH)
VHH: QVKLEESGGGLVQAGGSLRLSCAASGRTFTNYAMAWFRQASGKEREFVAIISQSGGRTYYGDSVKGRFTISRDNAKNTVYLQLNSLQPEDTGVYYCAAGDSPYYYSRSRYDLWGPGTQVTVSS
notes: as for B1

Columns and labels:
[1] = molecular target: T1, 630 SLP (surface layer protein of C. difficile strain 630, HMW and LMW subunits) (Clostridioides difficile 630 (ribotype …, UniProt Q183M8, strain)); assay: SPR; Biacore 3000; 630 SLP immobilised on a CM5 chip, VHHs injected at various concentrations; data not shown; conditions: both partners purified
T1 construct: low-molecular-weight (LMW) subunit of the surface layer protein, cut from the precursor SlpA by Cwp84, C. difficile strain 630 (ribotype 012); predicted mass 34.2 kDa; high-molecular-weight (HMW) subunit of the surface layer protein, cut from the precursor SlpA by Cwp84, C. difficile strain 630 (ribotype 012); predicted mass 39.5 kDa; Both subunits come from one precursor, SlpA; source: purified …

[2] = molecular target: T2, SLP on cells of C. difficile strain BI-1 (ribotype 027) (Clostridioides difficile BI-1 (ribotype …, UniProt A0A9R0BMB3, strain)); assay: ELISA; whole cell ELISA: formalin-fixed C. difficile cells coated on MaxiSorp plates, His6-tagged VHH at 10 μg/ml in PBS-T, 37 °C, 1 h, detected with anti-His6-HRP; conditions: one partner purified
T2 construct: LMW subunit of the surface layer protein (from the precursor SlpA), C. difficile strain BI-1, ribotype 027; HMW subunit of the surface layer protein (from the precursor SlpA), C. difficile strain BI-1, ribotype 027; Whole cells were the antigen; source: endogenous, on formalin-fixed C. difficile BI-1 cells

[3] = molecular target: T3, SLP on cells of C. difficile strain BI-7 (ribotype 027) (Clostridioides difficile BI-7 (ribotype …, UniProt A0A9R0BMB3, strain)); assay: as above; conditions: one partner purified
T3 construct: LMW subunit of the surface layer protein (from the precursor SlpA), C. difficile strain BI-7, ribotype 027; HMW subunit of the surface layer protein (from the precursor SlpA), C. difficile strain BI-7, ribotype 027; Whole cells were the antigen; source: endogenous, on formalin-fixed C. difficile BI-7 cells

[4] = molecular target: T4, SLP on cells of C. difficile strain 196 (ribotype 027) (Clostridioides difficile 196 (ribotype …, UniProt A0A9R0BMB3, strain)); assay: as above; conditions: one partner purified
T4 construct: LMW subunit of the surface layer protein (from the precursor SlpA), C. difficile strain 196, ribotype 027; HMW subunit of the surface layer protein (from the precursor SlpA), C. difficile strain 196, ribotype 027; Whole cells were the antigen; source: endogenous, on formalin-fixed C. difficile 196 cells

[5] = molecular target: T5, SLP on cells of C. difficile strain R20291 (ribotype 027) (Clostridioides difficile R20291 …, UniProt A0A9R0BMB3, strain); assay: as above; conditions: one partner purified
T5 construct: LMW subunit of the surface layer protein (from the precursor SlpA), C. difficile strain R20291, ribotype 027; HMW subunit of the surface layer protein (from the precursor SlpA), C. difficile strain R20291, ribotype 027; Whole cells were the antigen; source: endogenous, on formalin-fixed C. difficile R20291 cells

[6] = molecular target: T6, QCD-32g58 LMW SLP (low-molecular-weight subunit of the QCD-32g58 surface layer protein) (Clostridioides difficile QCD-32g58 …, UniProt A0A9R0BMB3, strain); assay: SPR; Biacore 3000; SEC-purified QCD-32g58 LMW SLP subunit amine-coupled to a CM5 chip; single-concentration screen, 200 nM VHH; 25 °C, 10 mM HEPES pH 7.4, 150 mM NaCl, 3 mM EDTA, 0.005 % P20; conditions: both partners purified
T6 construct: low-molecular-weight (LMW) subunit of the surface layer protein, cut from the precursor SlpA by Cwp84, C. difficile strain QCD-32g58 (ribotype 027); predicted mass 33.9 kDa; also called QCD-32g58 SLP LMW subunit; LMW subunit; source: purified from C. difficile QCD-32g58 (low-pH glycine extraction, minor SEC peak at about 15 ml); in the Western blot the LMW band of the extracted SLPs

[7] = molecular target: T7, QCD-32g58 SLP (surface layer protein of C. difficile strain QCD-32g58, HMW and LMW subunits) (Clostridioides difficile QCD-32g58 …, UniProt A0A9R0BMB3, strain); assay: SPR; Biacore 3000; SEC-purified QCD-32g58 SLP amine-coupled to a CM5 chip, VHH monomer fractions injected at various concentrations; 25 °C, 10 mM HEPES pH 7.4, 150 mM NaCl, 3 mM EDTA, 0.005 % P20; KD by steady-state analysis; conditions: both partners purified
T7 construct: low-molecular-weight (LMW) subunit of the surface layer protein, cut from the precursor SlpA by Cwp84, C. difficile strain QCD-32g58 (ribotype 027); predicted mass 33.9 kDa; high-molecular-weight (HMW) subunit of the surface layer protein, cut from the precursor SlpA by Cwp84, C. difficile strain QCD-32g58 (ribotype 027); predicted mass 44.2 kDa; Both subunits come from one precursor, SlpA; also …

[8] = molecular target: 630 SLP (surface layer protein of C. difficile strain 630, HMW and LMW subunits) (Clostridium difficile strain 630); assay: SPR; Biacore 3000; 630 SLP immobilised on a CM5 chip, VHHs injected at various concentrations; data not shown
[9] = molecular target: QCD-32g58 LMW SLP (low-molecular-weight subunit of the QCD-32g58 surface layer protein) (Clostridium difficile strain QCD-32g58); assay: SPR; Biacore 3000; SEC-purified QCD-32g58 LMW SLP subunit amine-coupled to a CM5 chip; single-concentration screen, 200 nM VHH; 25 °C, 10 mM HEPES pH 7.4, 150 mM NaCl, 3 mM EDTA, 0.005 % P20

Binder	binding result [1]	binding result [2]	binding result [3]	binding result [4]	binding result [5]	Kd [6]	koff [6]	kon [6]	Kd [7]	Kd [8]	Kd [9]	koff [9]	kon [9]
B1	no binding	binds	binds	binds	binds	8 nM	0.0011 s⁻¹	130000 M⁻¹ s⁻¹	180 nM	–	–	–	–
B2	no binding	binds	binds	binds	binds	14 nM	0.0027 s⁻¹	190000 M⁻¹ s⁻¹	75 nM	–	–	–	–
B3	–	binds	binds	binds	binds	–	–	–	580 nM	2000 nM	460 nM	0.097 s⁻¹	210000 M⁻¹ s⁻¹
